# Results as given in patent publication US20110135573A1, “METALLOPROTEINASE 9 AND METALLOPROTEINASE 2 BINDING PROTEINS” (DYAX CORP., priority 2009, published 2011).
# Legend:
# [1] = biological target: T1, Human MMP-9 catalytic domain (Homo sapiens, UniProt P14780); assay: Inhibition progress curves and kinetic analysis (kobs, kon, koff); type: biochemical; conditions: 25° C.; for kobs: substrate 9 μM
# T1 construct: Human MMP-9 catalytic domain (BIOMOL, SE-244); purchased BIOMOL SE-244
# Method: The kinetics of the interaction between M0237-D02 and the human MMP-9 were determined. The rates were determined using the following equation: […]
# The second order rate constant for the association of the enzyme E and the inhibitor I (kon) and the first order rate constant for the dissociation of the complex EI (koff) can be calculated from inhibition progress curves obtained at different inhibitor concentrations.
# Materials: • Substrate: Mca-KPLGL-Dap(Dnp)-AR-NH2 (M-2350) from BACHEM (521575). A 10 mM stock solution was prepared in DMSO. • Human MMP-9 catalytic domain (BIOMOL, SE-244). • M0237-D02 hIgG1: 2517-068. • All measurements were performed at 25° C. in TCNB: 50 mM Tris/HCl, 10 mM CaCl2, 150 mM NaC10.05% Brij 35, pH 7.5. • 96-well black plates from Perkin Elmer (6005270) • Spectramax M2e to measure fluorescence emission of the substrate upon hydrolysis (λexc=328 nm and λem=393 nm)
# The enzyme (at a final concentration ranging from 1.5 to 12.3 nM), the substrate (9 μM final) and the M0237-D02 antibody were mixed, and the fluorescence was immediately recorded in order to follow the hydrolysis of the substrate. The observed inhibition rate (kobs) was obtained by analyzing the progress curves with a single exponential. The value for kon and koff were calculated from the plot of the kobs vs. the antibody concentration using the following equation: […]
# [2] = biological target: T1, Human MMP-9 catalytic domain; assay: Ki measurement and inhibition model, fluorogenic substrate Mca-KPLGL-Dap(Dnp)-AR-NH2; type: biochemical; conditions: fluorogenic peptide substrates
# Method: (§1) This example characterized the interaction of the M0237-D02 hIgG1 with the human and mouse MMP-9. The Ki was measured and the inhibition mechanism was determined
# (§2) Materials: • Substrate: Mca-KPLGL-Dap(Dnp)-AR-NH2 (M-2350) from BACHEM (521575). A 10 mM stock solution was prepared in DMSO. • Enzymes: • Human MMP-9 catalytic domain (BIOMOL, SE-244). Enzyme concentration was measured by titration with TIMP-1 (2522-104) • Mouse MMP-9 (R&D, 909-MM), APMA-activated. • M0237-D02 hIgG1: 2517-014. Dialysed against TCN. • TCNB: 50 mM Tris/HCl, 10 mM CaCl2, 150 mM NaC, […], pH 7.5. • -96-well black plates from Perkin Elmer (6005270) • Spectramax M2e to measure fluorescence emission of the substrate upon hydrolysis (temperature control set at 30° C.; λexc=328 nm and λem=393 nm)
# (§3) The enzyme (final concentration=0.23 and 0.17 nM for the human and mouse MMP-9, respectively) was preincubated with various concentrations (0-50 nM) of M0237-D02 for 1 h at 30° C. The substrate was then added to a final concentration ranging from 5 to 40 μM and initial rates were recorded.
# (§4) Each data point was measured in triplicate, and initial rates were averaged.
# (§5) Averaged initial rates were plotted against the M0237-D02 concentration for each substrate concentration, and IC50's were calculated using the following equation: […]
# (§6) The IC50 values were then plotted against the substrate concentration.
# Mouse MMP-9 = biological target: T2, Mouse MMP-9 (Mus musculus, UniProt P41245); assay: as above; type: biochemical; conditions: fluorogenic peptide substrates
# T2 construct: purchased R&D Systems 909-MM (909-MM-010)
# Method: as §1, §2, §3, §4, §5, §6
# [3] = system: carrageenan-stimulated mouse air pouch; assay: Carrageenan-stimulated mouse air pouch, inflammatory cell infiltration; type: in vivo; conditions: FIG. 2
# Text: The purpose of the following experiments were to determine the effect of 539A-M0237-D02 on inflammation and specifically on inflammatory cell infiltration into the carrageenan-stimulated mouse air pouch and on the arthritic index in collagen-induced arthritis (CIA) mice.
# For the carrageenan-stimulated mouse air pouch model, subcutaneous injection of air into the hind flank or back of mice produces an air pouch in a week, the interior surface of which contains both fibroblast-like and macrophage-like cells. Inflammatory stimulation of the pouch results in leukocyte recruitment to the pouch and release of mediators (cytokines) into the exudate. Preventing inflammatory cell infiltration into the air pouch may translate into preventing inflammation of the synovium in rheumatoid arthritis.
# The effect of 539A-M0237-D02 on inflammatory cell infiltration was compared to inflammatory cell infiltration indomethacin and a control (PBS). In addition, inflammatory cell recruitment was compared to an unstimulated mouse.
# human pro-MMP-9 = biological target: T3, human pro-MMP-9 (Homo sapiens, UniProt P14780); assay: Biacore 3000 binding to antibody-coated CM5 chip; conditions: Direct capture, 25° C.
# T3 construct: the human pro-MMP-9 (R&D, 911-MP); purchased R&D Systems 911-MP
# Method: (§7) Experiments were performed at 25° C. with the help of a Biacore 3000 instrument. The MMP-9 binding protein (M0166F10) and the M0237-D02 antibody were coated to a CM5 chip either via standard amine coupling or using an anti-Fc antibody surface. Then either the active, human MMP-9 catalytic domain (BIOMOL, SE-244), the human pro-MMP-9 (R&D, 911-MP), the human TIMP-1 (R&D, 970-TM) or a h-MMP-9/h-TIMP-1 complex were flowed over the antibody surfaces, and binding was recorded.
# [4] = biological target: T1, Human MMP-9 catalytic domain; assay: Biacore 3000 binding to antibody-coated CM5 chip; conditions: 25° C.
# Method: as §7
# human TIMP-1 = biological target: T4, human TIMP-1 (Homo sapiens, UniProt P01033); assay: Biacore 3000 binding to antibody-coated CM5 chip; conditions: Direct capture; 25° C.
# T4 construct: purchased R&D Systems 970-TM
# Method: as §7
# Colo205 tumor sections = assay: Film in situ zymography (FIZ) on frozen tumor sections; type: cell-based, human; conditions: 500 nM; 37° C. overnight
# Method: (§8) PBS-control treated tumors were screened with M0237-D02 for gelatinase expression using the FIZ approach. The tumors tested were Colo205 and MCF-7. Briefly, frozen slides of tumpor sections were dried at room temperature and 200 μl of in situ Zymo buffer (TCNB)+20 μg/ml of gelatin quenched substrate from molecular probes was added. The slides were incubate at 37° C. overnight in the presence of M0237-D02 at 500 nM or GM6001 used as a positive control at 100 μM. The substrate was washed in MilliQ (3 times) and the mounted slides were treated with anti-Fade+Dapi mounting medium.
# MCF-7 tumor sections = assay: as above; type: cell-based, human; conditions: 500 nM; 37° C. overnight
# Method: as §8
# [5] = from plot of kobs vs. antibody concentration
# T1 sequence (P14780 107-444 limits assumed): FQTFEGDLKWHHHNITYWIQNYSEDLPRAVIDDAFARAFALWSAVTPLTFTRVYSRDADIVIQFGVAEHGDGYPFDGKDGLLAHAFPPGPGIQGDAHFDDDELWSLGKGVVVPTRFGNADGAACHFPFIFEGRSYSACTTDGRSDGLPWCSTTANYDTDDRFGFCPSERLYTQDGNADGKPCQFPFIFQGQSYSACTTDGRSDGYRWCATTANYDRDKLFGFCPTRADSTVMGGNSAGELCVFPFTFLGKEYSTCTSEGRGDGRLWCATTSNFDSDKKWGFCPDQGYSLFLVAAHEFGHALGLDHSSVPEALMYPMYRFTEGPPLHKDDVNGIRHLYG
# T3 sequence (P14780 20-707 limits assumed): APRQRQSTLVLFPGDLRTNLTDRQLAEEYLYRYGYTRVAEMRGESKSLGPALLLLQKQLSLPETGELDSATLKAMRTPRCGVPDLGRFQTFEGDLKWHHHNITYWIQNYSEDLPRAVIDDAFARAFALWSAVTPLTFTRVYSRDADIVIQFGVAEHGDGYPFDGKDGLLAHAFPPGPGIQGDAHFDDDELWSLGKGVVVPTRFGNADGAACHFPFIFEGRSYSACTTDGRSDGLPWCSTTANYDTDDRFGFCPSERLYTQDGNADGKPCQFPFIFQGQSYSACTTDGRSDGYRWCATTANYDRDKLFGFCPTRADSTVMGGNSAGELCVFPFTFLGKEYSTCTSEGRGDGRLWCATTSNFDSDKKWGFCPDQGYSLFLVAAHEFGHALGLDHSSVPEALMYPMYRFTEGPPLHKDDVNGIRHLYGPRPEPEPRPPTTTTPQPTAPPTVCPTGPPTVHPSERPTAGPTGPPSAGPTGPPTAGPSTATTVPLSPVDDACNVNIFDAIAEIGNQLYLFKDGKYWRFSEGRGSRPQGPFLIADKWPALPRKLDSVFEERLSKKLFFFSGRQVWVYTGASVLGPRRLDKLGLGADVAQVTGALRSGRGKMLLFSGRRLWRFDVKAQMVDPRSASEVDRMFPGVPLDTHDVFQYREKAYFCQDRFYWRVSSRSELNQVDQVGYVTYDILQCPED
# T4 sequence (P01033 24-207): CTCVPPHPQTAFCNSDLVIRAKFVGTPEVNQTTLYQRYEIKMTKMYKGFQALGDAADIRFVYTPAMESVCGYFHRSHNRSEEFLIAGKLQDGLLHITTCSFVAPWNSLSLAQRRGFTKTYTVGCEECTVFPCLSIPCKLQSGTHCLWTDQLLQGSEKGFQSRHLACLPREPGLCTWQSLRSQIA
# T2 sequence (P41245 108-730): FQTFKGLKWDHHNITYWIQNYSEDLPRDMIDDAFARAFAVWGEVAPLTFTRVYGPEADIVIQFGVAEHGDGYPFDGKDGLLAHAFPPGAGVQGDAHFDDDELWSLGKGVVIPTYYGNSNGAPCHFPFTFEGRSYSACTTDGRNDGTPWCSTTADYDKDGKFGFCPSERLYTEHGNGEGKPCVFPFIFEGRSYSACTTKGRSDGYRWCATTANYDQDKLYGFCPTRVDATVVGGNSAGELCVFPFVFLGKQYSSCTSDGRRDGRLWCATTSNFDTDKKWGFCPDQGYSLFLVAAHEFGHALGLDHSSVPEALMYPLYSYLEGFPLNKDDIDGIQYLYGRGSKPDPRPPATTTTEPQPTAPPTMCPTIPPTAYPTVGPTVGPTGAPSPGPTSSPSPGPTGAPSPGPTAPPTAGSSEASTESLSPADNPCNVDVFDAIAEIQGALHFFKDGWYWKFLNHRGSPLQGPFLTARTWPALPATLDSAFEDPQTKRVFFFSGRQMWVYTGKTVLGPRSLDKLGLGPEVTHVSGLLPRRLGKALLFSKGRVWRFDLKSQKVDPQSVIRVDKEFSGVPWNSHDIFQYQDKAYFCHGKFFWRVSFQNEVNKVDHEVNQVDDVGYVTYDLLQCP
molecule,measurement,setting,value
"M0237-D02: MMP-9/-2 dual reactive antibody inhibitor (parental); sFab and hIgG1 (antibody, V domains shown) VH: EVQLLESGGGLVQPGGSLRLSCAASGFTFSQYPMWWVRQAPGKGLEWVSYIVPSGGRTYYADSVKGRFTISRDNSKNTLYLQMNSLRAEDTAVYYCAKDRAYGDYVGWNGFDYWGQGTLVTVSS VL: DIQMTQSPATLSLSPGERATLSCRASQSISSFLAWYQQKPGQAPRLLIYDASYRATGIPARFSGSGSGTDFTLTISSLEPEDYAVYYCQQRGNWPITFGQGTRLEIK",kobs,[1]; M0237-D02 concentration 14.4 nM,0.0013 s⁻¹
same,kobs,[1]; M0237-D02 concentration 19.2 nM,0.0019 s⁻¹
same,kobs,[1]; M0237-D02 concentration 28.8 nM,0.0024 s⁻¹
same,kobs,[1]; M0237-D02 concentration 115.2 nM,0.0086 s⁻¹
same,koff,[1]; [5],~4 10^−4 s^−1
same,kon,[1]; [5],~7 10^4 M^−1 s^−1
same,inhibition model,[2],non competitive inhibitor
same,inhibition model,Mouse MMP-9,non competitive inhibitor
same,lymphocyte infiltration,[3],significantly decreased
same,neutrophil infiltration,[3],significantly decreased
same,total white blood cell infiltration,[3],significantly decreased
same,binding of Pro-huMMP-9,human pro-MMP-9; listed as 539A-M0237D02,No
same,binding of Pro-huMMP-9,human pro-MMP-9; listed as M237-D02,observed neither
same,binding of Cat-huMMP-9,[4]; Direct capture (amine coupling),No
same,binding of Cat-huMMP-9,[4]; Fc capture (anti-Fc antibody surface),could be observed
same,binding of Cat-huMMP-9,"[4]; Fc capture (anti-Fc antibody surface), listed as 539A-M0237D02",Yes
same,binding of huTIMP-1,human TIMP-1,No
same,inhibition of gelatinolytic activity,Colo205 tumor sections,complete inhibition
same,inhibition of gelatinolytic activity,MCF-7 tumor sections,complete inhibition
